{"source": "patent US5302370A", "about": "“Chelating agents for forming complexes with radioactive isotopes, metal complexes thereof and use thereof in diagnosis and therapy” (Institut fur Diagnostikforschung GmbH, priority 1989, dated 1994)", "molecules": {"B1": {"name": "conjugate of F(ab)2 fragments of the monoclonal antibody 17-1A and the compound [7]: conjugate of F(ab)2 fragments of the monoclonal antibody 17-1A and the compound [7] prepared in Example 1, … (conjugate, chains of the INN, looked up)", "VH": "QVQLQQSGAELVRPGTSVKVSCKASGYAFTNYLIEWVKQRPGQGLEWIGVINPGSGGTNYNEKFKGKATLTADKSSSTAYMQLSSLTSDDSAVYFCARDGPWFAYWGQGTLVTVSA", "VL": "NIVMTQSPKSMSMSVGERVTLTCKASENVVTYVSWYQQKPEQSPKLLIYGASNRYTGVPDRFTGSGSATDFTLTISSVQAEDLADYHCGQGYSYPYTFGGGTKLEIK", "modifications": "F(ab')2 chelate compound [7], Tc-99m label"}}, "key": {"[1]": {"tested_on": "MX-1 human carcinoma (control, antigen not expressed)", "test": "Bio-distribution of a protein-bonded Tc-99m complex in hairless mice: antigen-negative MX-1 control tumour", "format": "in vivo, human carcinoma in immune-deficient hairless mice", "conditions": "MX-1 tumour (300-800 mg); 24 hours after i.v. 20 μg conjugate labelled with 200 μCi", "experimental": "(§1) The monoclonal antibody 17-1A was obtained by methods known in the literature, after application of 10^7 of the corresponding hybridoma cells to the abdominal cavity of a Balb/c-mouse and suction of the ascites fluid after 7-10 days. Purification was brough about likewise by methods known in the literature, by ammonium sulphate precipitation and affinity chromatography over protein A-sepharose. The purified antibody (10 mg/ml) was treated with 25 μg/ml pepsin at pH 3.5 for 2 hours and then isolated by FPLC. Before coupling to the chelating agent, the fragments were dialysed against 0.1M KH2 PO4 /0.1M NaHCO3, pH 8.5, at 4° C. for 12-24 hours. The protein concentration was adjusted to 10 mg/ml. A 5-fold molar excess of the NCS-containing chelating agent [Example 1] was dissolved in a minimum amount of the same buffer and added to the protein solution. […]\n(§2) The bio-distribution of protein-bonded chelates will be described, using a conjugate of F(ab)2 fragments of the monoclonal antibody 17-1A and the compound [7] prepared in Example 1 as a model. […] The immune reactivity of the conjugates was 70-80% as determined by bonding to an excess of antigen in the cell. The bio-distribution 24 hours after administration of the conjugate was determined by killing the animals, removing the organs and measuring the radioactivity therein."}, "[2]": {"tested_on": "antigen expressed from the human carcinoma cell line \"HT-29\"", "test": "Immune reactivity of the conjugates by bonding to an excess of antigen in the cell", "format": "binding", "conditions": "after gel filtration on PD 10", "experimental": "(§3) The bio-distribution of protein-bonded chelates will be described, using a conjugate of F(ab)2 fragments of the monoclonal antibody 17-1A and the compound [7] prepared in Example 1 as a model. The antibody from which the fragments were obtained recognise an antigen expressed from the human carcinoma cell line \"HT-29\". […] Isolated cells from both lines were subcutaneously administered to immune-deficient hairless mice. After the tumours had grown to a size of 300-800 mg, the mice were intravenously given 20 μg of the chelate conjugate [Example 17] labelled with 200 μCi. The conjugates were first freed from low-molecular constituents by gel filtration on PD 10 columns manufactured by Messrs. Bio-Rad. The immune reactivity of the conjugates was 70-80% as determined by bonding to an excess of antigen in the cell. The bio-distribution 24 hours after administration of the conjugate was determined by killing the animals, removing the organs and measuring the radioactivity therein."}, "[3]": {"test": "Bio-distribution of a protein-bonded Tc-99m complex in tumour-bearing hairless mice: organs", "format": "in vivo, immune-deficient hairless mice", "conditions": "24 hours after i.v. 20 μg conjugate labelled with 200 μCi", "experimental": "The monoclonal antibody 17-1A was obtained by methods known in the literature, after application of 10^7 of the corresponding hybridoma cells to the abdominal cavity of a Balb/c-mouse and suction of the ascites fluid after 7-10 days. Purification was brough about likewise by methods known in the literature, by ammonium sulphate precipitation and affinity chromatography over protein A-sepharose. The purified antibody (10 mg/ml) was treated with 25 μg/ml pepsin at pH 3.5 for 2 hours and then isolated by FPLC. Before coupling to the chelating agent, the fragments were dialysed against 0.1M KH2 PO4 /0.1M NaHCO3, pH 8.5, at 4° C. for 12-24 hours. The protein concentration was adjusted to 10 mg/ml. A 5-fold molar excess of the NCS-containing chelating agent [Example 1] was dissolved in a minimum amount of the same buffer and added to the protein solution. In order to form the conjugate, the mixture was incubated at 37° C. for 3 hours. Next, the conjugate was dialysed 24-48 hours against PBS (phosphate-buffered saline) with repeated change of buffer, and the protein concentration was re-adjusted to 10 mg/ml when necessary. Before labelling with Tc-99m, the conjugate could be kept in acid-cleaned glass vessels after sterile filtration at 4° C.\n1 mg of the antibody fragment coupled to the chelating agent was labelled with TC-99m by adding 10 mCi pertechnetate solution (=1-2 ml) and 100 μg tin-II chloride in a solution of Na pyrophosphate (1 mg/ml) scavenged with argon or by ligand exchange e.g. by mixing the solution with a commercially obtainable glucoheptonate kit to which pertechnetate had been added.\nas §3"}, "[4]": {"tested_on": "HT-29 human carcinoma (antigen-positive tumour)", "test": "Bio-distribution of a protein-bonded Tc-99m complex in hairless mice: antigen-positive HT-29 tumour", "format": "in vivo, human carcinoma in immune-deficient hairless mice", "experimental": "as §1, §2"}}, "data": [{"molecule": "B1", "values": [{"measurement": "% of applied dose per gram of tissue, MX-1", "setting": "[1]", "result": "1.8 % of applied dose per gram of tissue"}, {"measurement": "immune reactivity of the conjugates", "setting": "[2]", "result": "70-80%"}, {"measurement": "% of applied dose per gram of tissue, Blood", "setting": "[3]; blood", "result": "0.6 % of applied dose per gram of tissue"}, {"measurement": "% of applied dose per gram of tissue, Kidneys", "setting": "[3]; kidneys", "result": "2.8 % of applied dose per gram of tissue"}, {"measurement": "% of applied dose per gram of tissue, Liver", "setting": "[3]; liver", "result": "1.2 % of applied dose per gram of tissue"}, {"measurement": "% of applied dose per gram of tissue, Lung", "setting": "[3]; lung", "result": "0.8 % of applied dose per gram of tissue"}, {"measurement": "% of applied dose per gram of tissue, Muscle", "setting": "[3]; muscle", "result": "0.1 % of applied dose per gram of tissue"}, {"measurement": "% of applied dose per gram of tissue, Spleen", "setting": "[3]; spleen", "result": "0.3 % of applied dose per gram of tissue"}, {"measurement": "concentration of the chelate in the antigen-positive tumour", "setting": "[4]; 24 hours after i.v. administration", "result": "marked concentration of the chelate in the antigen-positive tumour"}, {"measurement": "% of applied dose per gram of tissue, HT29", "setting": "[4]; HT29 tumour (300-800 mg), 24 hours after i.v. 20 μg conjugate labelled with 200 μCi", "result": "12.1 % of applied dose per gram of tissue"}]}]}
